# Assay: soluble on expression in E. coli; label from the status in PepcDB or PDB records
row,Sequence,soluble on expression in E. coli
1,MSLAAPNAASGVLKLYRAYREQAQRLSDLSDLLAREGHETALSSTRLPIDEVRHVFENRPAYFHAIDAAAEELHKQLSTGDDLASGLRAWLQKNHGIVVRTLPVHAMPNLRRRYDRHSMRLFLSERLSQPDQLREMAMETCLLALREEIGTELEALGLKGEEARRIARFELARYAAHALMMPYGAFLAAAQRAKYDLDVLRSRFNVSFEQAANRLVSLQRPTTAAIPFFLMEIDNAGNRFRLAGAGGFPRARFGGLCPRLNIHAAFAQPGQVLVESVEMPDGDAFLTVSRTLEGEGHHHHHH,not soluble
2,MRPMPTDDINSRIAELEADNRRLRQLLDKRDAPGELRHRLRSTVAMLRTIIRKSASKRHSLDTYVGHLEDRLDALMRAQAIADEQGAIDFHKLLADELLHYQARDGERVTFAGPDLHLQARAGQVLALAVHELAVNAVEHGALGGDGTIDIRWSVAGAGPAPLLTFVWKETDTAPVAEPSHHGFGTEVLTRTLEYELKAKTDLAFEPDGLRCTIRFPLSERVDGSQAG,not soluble
3,MLLDKLSRPLKVLRISLTDRCNLRCNFCMPPGKEYNFLPKRQLLTPEEIEEYVKIFAKLGVEKVRLTGGEPLLREDLEEIIQRISKVEGIKDIALTTNGVFLKERLKALKEAGLKRITVSVHSLNPEKNQKLVNRSVNLGEVFEVIIRAKELGFKVKVNSVIIKGFNDDEILDLARFFKNLGVTLRFIEYMDVGTVNDWDFSKVVSADEILNLMKKEFTFYPLPKRPEDTSMDFIYEDGNKFGIIASVTKPFCRGCNRIRLSADGKLYTCLFSDKGHDLRNAVDKENFIKEVWKDRKDRYSELRRQMKRERKVEMFKVGGLEHHHHHH,not soluble
4,MGSDKIHHHHHHARLNAFKQLTPGSDVRDWIAAAGQVGGLGAADLNFPDHFAVYDADQMGNFLGEAALTLNGIAMRYYTDPGFKLGAFTHPDAAVRQAALDVTKQGIDTCARMGGKTVTLWMGQDGFDYAFQMDYGLAWDRTVAAIADICAHDPNIDIAIEYKPNEPRAFALMPDIGTTLLACREVGAVNLGVTLDFAHVLYADEMPAHSAALIGRHSRMIGLHLNDGYGKRDDGLMVGSVHAIQTVELLVAMLRMGQTDVIYFDTFPDMGGLNPIEEARTNVAVTDRLMAVAESLMEDPALAQAIDRQDAAASHRIVARALYGS,not soluble
5,MPLNTDFFKPSKNKEKFVLVFLKRGYPSHVDLLTKIAEKVKMKSIGYKIPNAEYLERVSDEELRDLYSSALVTLYPIDFEYYGYIPVESMAAGTPVIAFRYSGGPAETIVDGETGWLASDEEEFYRLTIKVYNEGYPEDTSVKSRKRAEEFSIQN,soluble
6,MVKKMCQDYLSSSGLCSQETLEINNDKVAESLGITEFLRKKEIHPDNLGPKHLSRDMDGEQLEGASSEKREREAAEEGLASVKRPRREALSNDTTESLAANSRGREKPRPLHALAAGTIVSQEEDIVTVTDAEGRACGWAR,soluble
7,MGSDKIHHHHHHMTKVAHLTSVHSRYDIRIFRKQCRTLSQYGYDVYLVVADGKGDEVKDGVRIVDVGVLSGRLNRILKTTRKIYEQALALGADVYHFHDPELIPVGLRLKKQGKQVIFDSHEDVPKQLLSKPYMRPFLRRVVAVLFSCYEKYACPKLDAVLTATPHIREKFKNINGNVLDINNFPMLGELDAMVPWASKKTEVCYVGGITSIRGVREVVKSLECLKSSARLNLVGKFSEPEIEKEVRALKGWNSVNEHGQLDREDVRRVLGDSVAGLVTFLPMPNHVDAQPNKMFEYMSSGIPVIASNFPLWREIVEGSNCGICVDPLSPAAIAEAIDYLVSNPCEAAALGRNGQRAVNERYNWDLEGRKLARFYSDLLSKRDSI,not soluble
8,VQRPWLAPLPGAPMNACRLLLCFPYGGGGASAFNDLSRLADVGVATWAVKLPGREDRSMEAPVTRVANVIEAIVDALQSVGIPYAFYGHSFGAGLALDVAHALAERDRPLPTHLVLSGRMPPHTGYSPLLGAMDDNQLWQHVCSESLLPLPTDASCSFARHALGKLKADLALNAQLTYRFIRPLPVPLYVLNGQDDPLLELHRLDEWQRYTSTSFHSEYVPGGHFFFNINFQLLYLPLLTALD,not soluble
9,PISKMVTAHFVLIHTICHGAWIWHKLKPALERAGHKVTALDMAASGIDPRQIEQINSFDEYSEPLLTFLEKLPQGEKVIIVGEACAGLNIAIAADRYVDKIAAGVFHNSLLPDTVHSPSYTVEKLLESFPDWRDTEYFTFTNITGETITTMKLGFVLLRENLFTKCTDGEYELAKMVMRKGSLFQNVLAQRPKFTEKGYGSIKKVYIWTDQDKIFLPDFQRWQIANYKPDKVYQVQGGDHKLQLTKTEEVAHILQEVADAYA,soluble
10,MEKVKVKNPIVELDGDEMARVMWKMIKEKLILPYLDIQLVYFDLGIKKRDETDDQITIEAAKAIKKYGVGVKCATITPDAERVKEYNLKKAWKSPNATIRAYLDGTVFRKPIMVKNVPPLVKRWKKPIIIGRHAYGDIYNAVEAKVEGPAEVELVVRNKENKTLLVHKFEGNGVVMAMHNLEKSIRSFAQSCINYAISEKVDIWFATKDTISKVYHAYFKDIFQEEVDKRKEELEKAGVNYRYMLIDDAAAQILRSEGGMLWACMNYEGDIMSDMIASGFGSLGLMTSVLVSPDGVYEFEAAHGTVRRHYYRYLKGEKTSTNPTASIFAWTGAIRKRGELDGTPEVCEFADKLEKAVINTIESGVITKDLQPFTEPPIDKYVTLEEFIDEVKKNLEKLL,soluble
11,MGSDKIHHHHHHMEEVIKLNSVDQYNKMYGLETLHPLVTVVDLSKATVFPTHFTLNYGLYALFLKQTKCGDLRYGRQMYDYQEGTVTSFAPGQVVEVKLNDGVRPMSHGILFHPDLIRGTSLGQEIKHYSFFSYASNEALHLSDDEKKIFQDCLDKVQQELSRPIDKHSKRLIARNIELLLDYCMRFYERQFVTRSKVNKDVLMKFEDLLDVYFQSEQSPNEKLPTVKYFADKVNLSSNYFGDLIKKETGKTAQEYIQGKIINIAKERILASEKTVSEIAYELGFQYPQHFTRIFKKVVGCTPTEYRVIQV,not soluble
12,MPSRLHSAVMSGTRDGDLNAAIRTALGKVIDPELRRPITELGMVKSIDTGPDGSVHVEIYLTIAGCPKKSEITERVTRAVADVPGTSAVRVSLDVMSDEQRTELRKQLRGDTREPVIPFAQPDSLTRVYAVASGKGGVGKSTVTVNLAAAMAVRGLSIGVLDADIHGHSIPRMMGTTDRPTQVESMILPPIAHQVKVISIAQFTQGNTPVVWRGPMLHRALQQFLADVYWGDLDVLLLDLPPGTGDVAISVAQLIPNAELLVVTTPQLAAAEVAERAGSIALQTRQRIVGVVENMSGLTLPDGTTMQVFGEGGGRLVAERLSRAVGADVPLLGQIPLDPALVAAGDSGVPLVLSSPDSAIGKELHSIADGLSTRRRGLAGMSLGLDPTRR,not soluble
13,MGSDKIHHHHHHMSEPVKGAQTVTRALSVLKHISHAHPFGIAIGELSEVSQLDRATTYRLASTLVSFGLVERDAARKYRLGVEAMQLGLSAMRSAPIVGQLQPAMRRLARRTEDTVFLVVRSGDYGHCIHCEEGTYPVKAMVLQVGGMRLLGVGSAGMTLLSMLSDVEVLALYQRHQEEFSRGPSFAKLKRMVGEARERGYADTVDLVTEGVSGVGMRFELSAGSHAAVSVAAIRSRMTPERKKWIAEIIAEELQVSGFTPAYSRVS,not soluble
14,MQQQILERIEDCYQQAEAYFKRAFPRPTTQFTLRGRSAGTAHLQQNRLRFNPVLLRENSEAFLAEVVPHEISHLLCFQIFGKTKPHGREWQSIMLKLFKISPNTTHNFDTQSVKGKDVEYRCACGPIRLGIRRHNKVLRGETRYLCKRCHTHLTLALEHHHHHH,not soluble
15,MGSDKIHHHHHHMSTKPFVYQDPFPLGKDETKYRKIEGSEKHVTVEQFAGKEVLRVCPEALSILANEAMRDVSFLLRPEHNESVAKILRDPEASMNDKGVALAFLRNAEISANFELPICQDTGTATVIAKKGQQVWTGGKDEEYLSKGVYKTYTEENLRYSQTVALNMYDEINTGTNLPAQVEIQAVDGDAYKFLFMAKGGGSANKTMLFQETKALLTPEKLEKFLVDKMKYLGTAACPPYHIAVVVGGCSADQCMKTVKLASAKYLDALPTQGNEHGQAFRDVELEEKLLQAAYKLGIGAQFGGKYFAHDVRVIRLPRHGASCPVGMAVSCSADRNIKAKITRDGLFVEELDRNPGRLIPEQYRGKHEHGVKIDLNRPMKEILAELSKYPVATPLLLNGTIVVGRDIAHAKFKEIIDAGKPVPEYLLNHPIYYAGPAKTPAGKPSGSFGPTTAGRMDSYVDLLQSKGASMIMIAKGNRSQQVTDACQKYGGFYLGSIGGPAAVLAEENIKKVECIDFPELGMEAVWKIEVENFPAFILVDDKGNDFFKQLGL,not soluble
16,MAEGQIIKALSGFYYVLSEGRVFQCRGRGVFRKKKVTPLVGDRVVFQATSETEGYILEIGERQNELVRPPIANVEQAILVFSAVSPDFSAKLLDRFLVLVESKRIAPIIVISKIDLLDGESKEEIARYVHDYRSIGYDVIETSAVTKGGLDELALRLRGRVSVVAGQSGVGKSSLLNALRPDLRLKTGDISTHLGRGKHTTRHVELLEVAGGLVADTPGFGALEFDQIELDELPHYFPEFRTYGEGCKFRGCLHIAEPKCAVREAVEAGEIPSYRYDHYVSFVAEMKERKPRY,not soluble
17,MSLKIFEFVPPTDKEIEEAQLKLGFKFSPEYIEFIKSGYDLGDAPIEALEISNPPSHADIFETLANARKYFQMPSEMCPICEDNSDYYCLNQKGEVVFWSHNGTTSEKWANVTVWRNQMATEVEGHHHHHH,soluble
18,MSTNEAAASQEDIALAQGAVLVKSCQVPDGSIPIRGFDFSTASGPDFSLSAILSSYMSTGFQATHLAQAIQQVNQMLSLRDTPLTCDDDEKLFPYPEGRQKRSCTIFLGYTSNLVTSGLREVLRYCVQRNLVDCIVTSAGGIEEDLIKCLKPSYLGTFTMDGAKLRSNGMNRAGNVLIPNDNYCAFEDWLMPILDECLVEQEEKHLNWTPSKLIQRLGERIGDESSILYWAAKHRIPVFCPALTDGSLGDMLYFHSVKSSPGLRVDIVEDVRHINTIAVKSFKTGSIILGGGVVKHHINNANLMRNGADHTVYINTGQEFDGSDSGAQPDEAVSWGKVKPSAGAVKVHAEATLVFPLLVAETFAKHEGHKD,not soluble
19,SAEKLFTPLKVGAVTAPNRVFMAPLTRLRSIEPGDIPTPLMGEYYRQRASAGLIISEATQISAQAKGYAGAPGLHSPEQIAAWKKITAGVHAEDGRIAVQLWHTGRISHSSIQPGGQAPVSASALNANTRTSLRDENGNAIRVDTTTPRALELDEIPGIVNDFRQAVANAREAGFDLVELHSAHGYLLHQFLSPSSNQRTDQYGGSVENRARLVLEVVDAVCNEWSADRIGIRVSPIGTFQNVDNGPNEEADALYLIEELAKRGIAYLHMSETDLAGGKPYSEAFRQKVRERFHGVIIGAGAYTAEKAEDLIGKGLIDAVAFGRDYIANPDLVARLQKKAELNPQRPESFYGGGAEGYTDYPSL,soluble
20,MNSKSRITAIGTHVPNQILSNNDLEKMIDTNDEWIVQRTGMKERRIASEDEYSSNLAIKAVENLCTTYKKNLEDVDCIIVATTTADYVFPSVACQIQQYFNIPHTMAFDLNATCAGFTYGLHVGNSLITSGSHKKVLVVATETLSKVTDYTDRTTCILFGDGAGAILLERDENKPSFIAYHMGTNGHGGIHLYRTNLSTTMNDTPLQTNEKIVQNGREVYKWATRTVPVGIKELLHTANMKMDDIDWFIPHSANLRMIESICEKSQIPIHKTLTSVEYMGNTSSVSIPLALDLARKKGKLNNGDTLLLYGFGGGLTHLGLIVEWDLS,not soluble

# From the DeepSol protein solubility set
